Reference: patent US7026125, “Heterodimers of retinoid X receptors (RXRS) and other steroid hormone receptors” (Ligand Pharmaceuticals)

How the values were obtained:
[1] = target: RARα/RXRα heterodimer (Homo sapiens, UniProt P10276;P19793 P10276:1-462,P19793:1-462); assay: EMSA; details: label: 32P
Experimental: (§1) (a) In vitro synthesized TRα, TRβ, RARα, RARβ, RARγ and TRα2 receptor proteins were preincubated either with (+) or without (−) equal amount of in vitro synthesized RXRα protein at room temperature for 10 minutes. Following this preincubation, the reaction mixtures were incubated with ^32p-labelled palindromic TRE (for 1 sequence see FIG. 2a) and analyzed by gel retardation assay as described in Experimental Procedures. […] As a control, equal amounts of TRα and RARα proteins were also mixed and incubated with labelled TRE.
(§2) In vitro translated receptor protein (1 to 5 μl depending on the translation efficiency) was incubated with the ^32P-labeled oligonucleotides in a 20-μl reaction mixture containing 10 mM hepes buffer, pH 7.9, 50 mM KCl, 1 mM DTT, 2.5 mM MgCl, 10% glycerol, and 1 μg of poly(dI-dC) at 25° C. for 20 minutes. In general, relative low receptor concentration was used to obtain the clear effect of heterodimer formation. The reaction mixture was then loaded on a 5% nondenaturing ployacrylamide gel containing 0.5×TBE (1×TBE=0.089 M Tris-borate, 0.089 M boric acid, and 0.002 M EDTA). To analyze the effect of RXRα or the nuclear proteins on receptor DNA binding activity, RXRα or the cell extracts were preincubated with receptor protein at room temperature for 10 minutes before performing the DNA binding assay. When antibody was used, 1 μl of the antiserum was incubated with the specific translation products at room temperature for 45 minutes before performing the experiments described above.

[2] = target: RARβ/RXRα heterodimer (UniProt P10826-2;P19793 P10826-2:1-448,P19793:1-462); assay: EMSA; details: label: 32P
Experimental: as §1, §2

[3] = target: T1, TRβ (UniProt P10828 P10828:1-461); assay: EMSA; details: label: 32P
T1 sequence: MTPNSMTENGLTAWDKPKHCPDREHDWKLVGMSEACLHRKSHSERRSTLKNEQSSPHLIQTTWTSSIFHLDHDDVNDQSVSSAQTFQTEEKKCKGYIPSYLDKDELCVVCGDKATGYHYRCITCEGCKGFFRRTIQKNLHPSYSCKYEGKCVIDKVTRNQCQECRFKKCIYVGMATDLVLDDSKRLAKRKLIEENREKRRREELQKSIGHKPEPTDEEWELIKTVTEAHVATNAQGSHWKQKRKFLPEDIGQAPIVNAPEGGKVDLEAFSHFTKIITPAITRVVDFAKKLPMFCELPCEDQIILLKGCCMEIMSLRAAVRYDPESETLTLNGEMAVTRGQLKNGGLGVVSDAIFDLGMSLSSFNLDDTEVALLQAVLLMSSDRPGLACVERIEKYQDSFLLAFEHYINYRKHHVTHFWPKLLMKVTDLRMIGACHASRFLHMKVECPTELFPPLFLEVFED
Experimental: as §1, §2

[4] = target: RARγ/RXRα heterodimer (UniProt P13631;P19793 P13631:1-454,P19793:1-462); assay: EMSA; details: label: 32P
Experimental: as §1, §2

[5] = target: T2, TRαm3 (UniProt P10827-2 P10827-2:1-167, C-terminal deletion of 243 aa); assay: EMSA; several complexes; details: label: 32P
T2 sequence: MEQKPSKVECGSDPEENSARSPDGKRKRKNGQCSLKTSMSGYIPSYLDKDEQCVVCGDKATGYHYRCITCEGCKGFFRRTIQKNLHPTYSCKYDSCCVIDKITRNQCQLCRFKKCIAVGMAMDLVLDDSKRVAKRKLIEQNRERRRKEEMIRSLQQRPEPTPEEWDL
Experimental: as §2

[6] = target: T3, TRαm2 (UniProt P10827-2 P10827-2:1-213, C-terminal deletion of 197 aa); assay: EMSA; several complexes; details: label: 32P
T3 sequence: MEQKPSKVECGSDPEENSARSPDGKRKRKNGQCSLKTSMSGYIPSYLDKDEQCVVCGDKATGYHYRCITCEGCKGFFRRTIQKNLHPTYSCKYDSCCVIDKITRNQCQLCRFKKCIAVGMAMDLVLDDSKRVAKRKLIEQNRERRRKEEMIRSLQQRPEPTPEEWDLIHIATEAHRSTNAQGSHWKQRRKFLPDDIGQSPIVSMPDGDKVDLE
Experimental: as §2

[7] = target: T4, TRα (UniProt P10827-2 P10827-2:1-410); assay: EMSA; monomer complex; 25 C, 50 mM KCl; details: label: 32P
T4 sequence: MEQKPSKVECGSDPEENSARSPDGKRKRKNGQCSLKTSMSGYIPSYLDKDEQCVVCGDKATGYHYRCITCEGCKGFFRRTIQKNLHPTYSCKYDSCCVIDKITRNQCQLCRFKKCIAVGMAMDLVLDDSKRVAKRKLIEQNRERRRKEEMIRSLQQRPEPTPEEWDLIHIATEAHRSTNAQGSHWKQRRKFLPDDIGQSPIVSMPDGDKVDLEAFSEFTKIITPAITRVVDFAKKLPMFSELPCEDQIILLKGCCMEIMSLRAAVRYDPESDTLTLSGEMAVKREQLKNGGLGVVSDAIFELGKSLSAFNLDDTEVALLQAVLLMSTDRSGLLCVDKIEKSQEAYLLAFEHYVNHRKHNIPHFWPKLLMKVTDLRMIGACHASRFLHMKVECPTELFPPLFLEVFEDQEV
Experimental: as §1
as §2, with “When antibody was used, 1 μl of the antiserum was incubated with the specific translation products at room temperature for 45 minutes before performing the experiments described above.” left out

[8] = target: TRαm1/RXRα (UniProt P10827-2;P19793 P10827-2:1-402,P19793:1-462, TRα C-terminal deletion of 8 aa); assay: EMSA; interaction unaffected; details: label: 32P
Experimental: as §2

[9] = target: T5, Flag-TRα (UniProt P10827-2 P10827-2:1-410); assay: EMSA; supershifted by anti-Flag; details: tags: N-terminal Flag; label: 32P
T5 sequence: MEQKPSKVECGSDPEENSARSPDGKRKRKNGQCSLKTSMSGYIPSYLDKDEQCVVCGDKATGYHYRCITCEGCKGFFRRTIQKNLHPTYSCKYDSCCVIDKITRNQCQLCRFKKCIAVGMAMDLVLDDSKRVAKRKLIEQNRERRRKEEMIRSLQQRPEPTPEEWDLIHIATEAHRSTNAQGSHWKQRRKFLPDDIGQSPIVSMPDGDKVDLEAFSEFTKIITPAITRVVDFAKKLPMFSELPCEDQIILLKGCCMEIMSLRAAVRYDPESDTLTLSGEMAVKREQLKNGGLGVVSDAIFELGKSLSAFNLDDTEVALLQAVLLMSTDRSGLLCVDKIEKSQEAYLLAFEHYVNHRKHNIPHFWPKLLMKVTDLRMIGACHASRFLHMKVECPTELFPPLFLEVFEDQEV
Experimental: (b) Effect of anti-Flag-TRα antibody on binding of the slow migrating complex. In vitro synthesized Flag-TRα (F-TRα) protein was incubated with in vitro synthesized RXRα protein in the presence or absence of anti-Flag antibody. The effect of antibody on DNA binding of the slow migrating complex was analyzed as described in FIG. 2a. For control, the receptor mixture was also incubated with preimmune serum (NI). The effect of anti-Flag antibody on DNA binding of Flag-RXRα, RXRα, Flag-TRα, and TRα was also analyzed. For comparison, anti-Flag antibody/Flag-RXRα-TRα interaction was run on the same gel (lanes 7–10).
In vitro translated receptor protein (1 to 5 μl depending on the translation efficiency) was incubated with the ^32P-labeled oligonucleotides in a 20-μl reaction mixture containing 10 mM hepes buffer, pH 7.9, 50 mM KCl, 1 mM DTT, 2.5 mM MgCl, 10% glycerol, and 1 μg of poly(dI-dC) at 25° C. for 20 minutes. In general, relative low receptor concentration was used to obtain the clear effect of heterodimer formation. The reaction mixture was then loaded on a 5% nondenaturing ployacrylamide gel containing 0.5×TBE (1×TBE=0.089 M Tris-borate, 0.089 M boric acid, and 0.002 M EDTA). […]

Measured: binding result

Sequence of TRαm1/RXRα (P19793 whole entry, stated change not applied, one chain of several): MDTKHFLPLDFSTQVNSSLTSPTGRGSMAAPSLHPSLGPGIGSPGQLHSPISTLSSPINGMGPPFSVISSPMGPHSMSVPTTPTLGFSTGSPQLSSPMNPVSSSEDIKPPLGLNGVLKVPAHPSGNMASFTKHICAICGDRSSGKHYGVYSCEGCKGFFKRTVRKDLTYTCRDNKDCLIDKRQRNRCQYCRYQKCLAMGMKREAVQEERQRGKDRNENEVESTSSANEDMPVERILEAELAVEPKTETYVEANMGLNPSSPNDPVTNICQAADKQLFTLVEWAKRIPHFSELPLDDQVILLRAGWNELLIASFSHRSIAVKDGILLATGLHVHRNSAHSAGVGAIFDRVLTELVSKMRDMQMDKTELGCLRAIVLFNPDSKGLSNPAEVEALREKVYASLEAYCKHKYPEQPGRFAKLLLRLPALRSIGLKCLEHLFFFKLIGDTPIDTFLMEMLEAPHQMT
Sequence of RARβ/RXRα heterodimer (P10826 other isoform, or with tags, fused parts or gaps, chain 1 of 2): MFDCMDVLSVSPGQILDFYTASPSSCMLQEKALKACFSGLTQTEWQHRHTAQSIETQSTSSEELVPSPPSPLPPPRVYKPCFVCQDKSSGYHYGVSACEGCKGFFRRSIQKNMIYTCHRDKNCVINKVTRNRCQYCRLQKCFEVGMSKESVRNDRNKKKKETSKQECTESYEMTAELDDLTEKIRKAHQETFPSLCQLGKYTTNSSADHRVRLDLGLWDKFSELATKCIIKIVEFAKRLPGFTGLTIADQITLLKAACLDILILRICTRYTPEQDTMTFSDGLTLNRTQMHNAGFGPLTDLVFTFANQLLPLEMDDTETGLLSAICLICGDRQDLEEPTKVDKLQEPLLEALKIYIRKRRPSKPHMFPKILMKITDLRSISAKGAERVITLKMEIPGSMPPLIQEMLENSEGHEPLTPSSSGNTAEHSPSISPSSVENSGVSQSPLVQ
Sequence of RARβ/RXRα heterodimer (P19793 whole entry, chain 2 of 2): as the sequence (P19793 whole entry, stated change not applied, one chain of several) above
Sequence of RARα/RXRα heterodimer (P10276 whole entry, chain 1 of 2): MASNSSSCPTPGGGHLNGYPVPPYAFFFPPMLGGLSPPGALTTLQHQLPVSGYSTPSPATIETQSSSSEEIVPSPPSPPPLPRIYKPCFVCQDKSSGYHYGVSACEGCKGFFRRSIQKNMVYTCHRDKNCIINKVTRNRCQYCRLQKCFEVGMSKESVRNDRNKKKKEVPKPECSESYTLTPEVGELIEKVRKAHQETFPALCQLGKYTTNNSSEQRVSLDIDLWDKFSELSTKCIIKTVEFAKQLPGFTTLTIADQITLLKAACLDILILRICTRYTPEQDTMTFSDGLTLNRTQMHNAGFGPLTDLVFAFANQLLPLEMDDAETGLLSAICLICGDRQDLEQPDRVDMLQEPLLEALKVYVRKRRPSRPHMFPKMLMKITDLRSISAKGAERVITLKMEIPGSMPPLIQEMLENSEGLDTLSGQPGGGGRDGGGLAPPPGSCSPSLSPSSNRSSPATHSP
Sequence of RARα/RXRα heterodimer (P19793 whole entry, chain 2 of 2): as the sequence (P19793 whole entry, stated change not applied, one chain of several) above
Sequence of RARγ/RXRα heterodimer (P13631 whole entry, chain 1 of 2): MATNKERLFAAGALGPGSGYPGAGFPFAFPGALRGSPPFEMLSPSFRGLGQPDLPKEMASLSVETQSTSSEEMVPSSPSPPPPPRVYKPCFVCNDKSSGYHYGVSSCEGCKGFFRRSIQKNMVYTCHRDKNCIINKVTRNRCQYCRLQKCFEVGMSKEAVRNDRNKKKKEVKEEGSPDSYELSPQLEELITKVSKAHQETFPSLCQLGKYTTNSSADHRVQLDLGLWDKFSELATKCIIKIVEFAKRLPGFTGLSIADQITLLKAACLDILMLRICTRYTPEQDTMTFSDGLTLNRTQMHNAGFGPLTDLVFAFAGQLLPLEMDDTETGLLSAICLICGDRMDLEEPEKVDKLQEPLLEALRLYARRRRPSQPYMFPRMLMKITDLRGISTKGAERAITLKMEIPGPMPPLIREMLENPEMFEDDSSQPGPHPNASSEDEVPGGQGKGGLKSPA
Sequence of RARγ/RXRα heterodimer (P19793 whole entry, chain 2 of 2): as the sequence (P19793 whole entry, stated change not applied, one chain of several) above

B1: palindromic TRE (dsDNA)
DNA 1: GATCTCAGGTCATGACCTGAGATC
DNA 2: GATCTCAGGTCATGACCTGAGATC
binds: all assays above
